In the supplement of paper PMC5998384:

Key:
HeLa Kyoto [1] = experiment: solubility change mitosis vs G1/S (difference of NP-40 vs SDS log2 ratios) (log2 ratio difference); higher = more soluble in mitosis
HeLa Kyoto [2] = experiment: thermal stability score vs G1/S (z-score of summed log2 fold changes over temperatures); higher = more thermally stable than in G1/S
HeLa Kyoto [3] = experiment: melting temperature (median over replicates), in situ; higher = more thermally stable
HeLa Kyoto [4] = experiment: solubility in G1/S (NP-40 vs SDS abundance) (log2 ratio); higher = more soluble; details: cell cycle stage: G1/S
[5] = cell cycle stage: early G1 (4.5 h after nocodazole release)
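Throughout, for melting temperature (median over replicates), in situ: HeLa Kyoto cells synchronized by double thymidine or nocodazole block, proteins quantified by TMT10plex mass spectrometry, three independent biological replicates.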
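Throughout, for solubility change mitosis vs G1/S (difference of NP-40 vs SDS log2 ratios): synchronized HeLa Kyoto cells (double thymidine block for G1/S, nocodazole release for mitosis), protein amounts in NP-40 versus SDS lysates quantified by mass spectrometry, three biological replicates.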
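Throughout, for solubility in G1/S (NP-40 vs SDS abundance): HeLa Kyoto cells arrested at G1/S by double thymidine block, proteins quantified by TMT10plex mass spectrometry in mild NP-40 versus SDS extracts, three biological replicates.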
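Throughout, for thermal stability score vs G1/S (z-score of summed log2 fold changes over temperatures): synchronized HeLa Kyoto cells, proteins quantified by TMT10plex mass spectrometry, three biological replicates, mitosis taken 0.5 h after nocodazole release, G1/S directly after double thymidine block.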

Sequence	solubility change mitosis (log2) (HeLa Kyoto [1])	thermal stability score (HeLa Kyoto [2]; [5])	thermal stability score (HeLa Kyoto [2]; cell cycle stage: mitosis)	melting temperature (HeLa Kyoto [3]; cell cycle stage: G1/S) [°C]	melting temperature (HeLa Kyoto [3]; cell cycle stage: mitosis) [°C]	solubility in G1/S (log2) (HeLa Kyoto [4])
MERFRLEKKLPGPDEEAVVDLGKTSSTVNTKFEKEELESHRAVYIGVHVPFSKESRRRHRHRGHKHHHRRRKDKESDKEDGRESPSYDTPSQRVQFILGTEDDDEEHIPHDLFTEMDELCYRDGEEYEWKETARWLKFEEDVEDGGDRWSKPYVATLSLHSLFELRSCILNGTVMLDMRASTLDEIADMVLDNMIASGQLDESIRENVREALLKRHHHQNEKRFTSRIPLVRSFADIGKKHSDPHLLERNGEGLSASRHSLRTGLSASNLSLRGESPLSLLLGHLLPSSRAGTPAGSRCTTPVPTPQNSPPSSPSISRLTSRSSQESQRQAPELLVSPASDDIPTVVIHPPEEDLEAALKGEEQKNEENVDLTPGILASPQSAPGNLDNSKSGEIKGNGSGGSRENSTVDFSKVDMNFMRKIPTGAEASNVLVGEVDFLERPIIAFVRLAPAVLLTGLTEVPVPTRFLFLLLGPAGKAPQYHEIGRSIATLMTDEIFHDVAYKAKDRNDLLSGIDEFLDQVTVLPPGEWDPSIRIEPPKSVPSQEKRKIPVFHNGSTPTLGETPKEAAHHAGPELQRTGRLFGGLILDIKRKAPFFLSDFKDALSLQCLASILFLYCACMSPVITFGGLLGEATEGRISAIESLFGASLTGIAYSLFAGQPLTILGSTGPVLVFEKILYKFCRDYQLSYLSLRTSIGLWTSFLCIVLVATDASSLVCYITRFTEEAFAALICIIFIYEALEKLFDLGETYAFNMHNNLDKLTSYSCVCTEPPNPSNETLAQWKKDNITAHNISWRNLTVSECKKLRGVFLGSACGHHGPYIPDVLFWCVILFFTTFFLSSFLKQFKTKRYFPTKVRSTISDFAVFLTIVIMVTIDYLVGVPSPKLHVPEKFEPTHPERGWIISPLGDNPWWTLLIAAIPALLCTILIFMDQQITAVIINRKEHKLKKGAGYHLDLLMVGVMLGVCSVMGLPWFVAATVLSISHVNSLKVESECSAPGEQPKFLGIREQRVTGLMIFILMGLSVFMTSVLKFIPMPVLYGVFLYMGVSSLKGIQLFDRIKLFGMPAKHQPDLIYLRYVPLWKVHIFTVIQLTCLVLLWVIKVSAAAVVFPMMVLALVFVRKLMDLCFTKRELSWLDDLMPESKKKKEDDKKKKEKEEAERMLQDDDDTVHLPFEGGSLLQIPVKALKYSPDKPVSVKISFEDEPRKKYVDAETSL [SLC4A7]	0.0133	-0.753	1.69	54.4	53.6	-0.196
MERHQPRLHHPAQGSAAGTPYPSSASLRGCRESKMPRRKGPQHPPPPSGPEEPGEKRPKFHLNIRTLTDDMLDKFASIRIPGSKKERPPLPNLKTAFASSDCSAAPLEMMENFPKPLSENELLELFEKMMEDMNLNEDKKAPLREKDFSIKKEMVMQYINTASKTGSLKRSRQISPQEFIHELKMGSADERLVTCLESLRVSLTSNPVSWVESFGHEGLGLLLDILEKLISGKIQEKVVKKNQHKVIQCLKALMNTQYGLERIMSEERSLSLLAKAVDPRHPNMMTDVVKLLSAVCIVGEESILEEVLEALTSAGEEKKIDRFFCIVEGLRHNSVQLQVACMQLINALVTSPDDLDFRLHIRNEFMRCGLKEILPNLKCIKNDGLDIQLKVFDEHKEEDLFELSHRLEDIRAELDEAYDVYNMVWSTVKETRAEGYFISILQHLLLIRNDYFIRQQYFKLIDECVSQIVLHRDGMDPDFTYRKRLDLDLTQFVDICIDQAKLEEFEEKASELYKKFEKEFTDHQETQAELQKKEAKINELQAELQAFKSQFGALPADCNIPLPPSKEGGTGHSALPPPPPLPSGGGVPPPPPPPPPPPLPGMRMPFSGPVPPPPPLGFLGGQNSPPLPILPFGLKPKKEFKPEISMRRLNWLKIRPHEMTENCFWIKVNENKYENVDLLCKLENTFCCQQKERREEEDIEEKKSIKKKIKELKFLDSKIAQNLSIFLSSFRVPYEEIRMMILEVDETRLAESMIQNLIKHLPDQEQLNSLSQFKSEYSNLCEPEQFVVVMSNVKRLRPRLSAILFKLQFEEQVNNIKPDIMAVSTACEEIKKSKSFSKLLELVLLMGNYMNAGSRNAQTFGFNLSSLCKLKDTKSADQKTTLLHFLVEICEEKYPDILNFVDDLEPLDKASKVSVETLEKNLRQMGRQLQQLEKELETFPPPEDLHDKFVTKMSRFVISAKEQYETLSKLHENMEKLYQSIIGYYAIDVKKVSVEDFLTDLNNFRTTFMQAIKENIKKREAEEKEKRVRIAKELAERERLERQQKKKRLLEMKTEGDETGVMDNLLEALQSGAAFRDRRKRTPMPKDVRQSLSPMSQRPVLKVCNHENQKVQLTEGSRSHYNINCNSTRTPVAKELNYNLDTHTSTGRIKAAEKKEACNVESNRKKETELLGSFSKNESVPEVEALLARLRAL [DIAPH3]	-0.183	1.77	3.55	46.8	46.4	0.186
MERKVLALQARKKRTKAKKDKAQRKSETQHRGSAPHSESDLPEQEEEILGSDDDEQEDPNDYCKGGYHLVKIGDLFNGRYHVIRKLGWGHFSTVWLSWDIQGKKFVAMKVVKSAEHYTETALDEIRLLKSVRNSDPNDPNREMVVQLLDDFKISGVNGTHICMVFEVLGHHLLKWIIKSNYQGLPLPCVKKIIQQVLQGLDYLHTKCRIIHTDIKPENILLSVNEQYIRRLAAEATEWQRSGAPPPSGSAVSTAPQPKPADKMSKNKKKKLKKKQKRQAELLEKRMQEIEEMEKESGPGQKRPNKQEESESPVERPLKENPPNKMTQEKLEESSTIGQDQTLMERDTEGGAAEINCNGVIEVINYTQNSNNETLRHKEDLHNANDCDVQNLNQESSFLSSQNGDSSTSQETDSCTPITSEVSDTMVCQSSSTVGQSFSEQHISQLQESIRAEIPCEDEQEQEHNGPLDNKGKSTAGNFLVNPLEPKNAEKLKVKIADLGNACWVHKHFTEDIQTRQYRSLEVLIGSGYNTPADIWSTACMAFELATGDYLFEPHSGEEYTRDEDHIALIIELLGKVPRKLIVAGKYSKEFFTKKGDLKHITKLKPWGLFEVLVEKYEWSQEEAAGFTDFLLPMLELIPEKRATAAECLRHPWLNS [SRPK1]	0.114	0.23	-0.71	51.7	51.3	-0.411
MERPDKAALNALQPPEFRNESSLASTLKTLLFFTALMITVPIGLYFTTKSYIFEGALGMSNRDSYFYAAIVAVVAVHVVLALFVYVAWNEGSRQWREGKQD [VMA21]	-0.124	-1.79	-0.397	55.6	56.7	-0.135
MERPLCSHLCSCLAMLALLSPLSLAQYDSWPHYPEYFQQPAPEYHQPQAPANVAKIQLRLAGQKRKHSEGRVEVYYDGQWGTVCDDDFSIHAAHVVCRELGYVEAKSWTASSSYGKGEGPIWLDNLHCTGNEATLAACTSNGWGVTDCKHTEDVGVVCSDKRIPGFKFDNSLINQIENLNIQVEDIRIRAILSTYRKRTPVMEGYVEVKEGKTWKQICDKHWTAKNSRVVCGMFGFPGERTYNTKVYKMFASRRKQRYWPFSMDCTGTEAHISSCKLGPQVSLDPMKNVTCENGLPAVVSCVPGQVFSPDGPSRFRKAYKPEQPLVRLRGGAYIGEGRVEVLKNGEWGTVCDDKWDLVSASVVCRELGFGSAKEAVTGSRLGQGIGPIHLNEIQCTGNEKSIIDCKFNAESQGCNHEEDAGVRCNTPAMGLQKKLRLNGGRNPYEGRVEVLVERNGSLVWGMVCGQNWGIVEAMVVCRQLGLGFASNAFQETWYWHGDVNSNKVVMSGVKCSGTELSLAHCRHDGEDVACPQGGVQYGAGVACSETAPDLVLNAEMVQQTTYLEDRPMFMLQCAMEENCLSASAAQTDPTTGYRRLLRFSSQIHNNGQSDFRPKNGRHAWIWHDCHRHYHSMEVFTHYDLLNLNGTKVAEGHKASFCLEDTECEGDIQKNYECANFGDQGITMGCWDMYRHDIDCQWVDITDVPPGDYLFQVVINPNFEVAESDYSNNIMKCRSRYDGHRIWMYNCHIGGSFSEETEKKFEHFSGLLNNQLSPQ [LOXL2]	-0.173	2.38	4.28	54.3	54.7	-0.152
MERQVLLSEPEEAAALYRGLSRQPALSAACLGPEVTTQYGGQYRTVHTEWTQRDLERMENIRFCRQYLVFHDGDSVVFAGPAGNSVETRGELLSRESPSGTMKAVLRKAGGTGPGEEKQFLEVWEKNRKLKSFNLSALEKHGPVYEDDCFGCLSWSHSETHLLYVAEKKRPKAESFFQTKALDVSASDDEIARLKKPDQAIKGDQFVFYEDWGENMVSKSIPVLCVLDVESGNISVLEGVPENVSPGQAFWAPGDAGVVFVGWWHEPFRLGIRFCTNRRSALYYVDLIGGKCELLSDDSLAVSSPRLSPDQCRIVYLQYPSLIPHHQCSQLCLYDWYTKVTSVVVDVVPRQLGENFSGIYCSLLPLGCWSADSQRVVFDSAQRSRQDLFAVDTQVGTVTSLTAGGSGGSWKLLTIDQDLMVAQFSTPSLPPTLKVGFLPSAGKEQSVLWVSLEEAEPIPDIHWGIRVLQPPPEQENVQYAGLDFEAILLQPGSPPDKTQVPMVVMPHGGPHSSFVTAWMLFPAMLCKMGFAVLLVNYRGSTGFGQDSILSLPGNVGHQDVKDVQFAVEQVLQEEHFDASHVALMGGSHGGFISCHLIGQYPETYRACVARNPVINIASMLGSTDIPDWCVVEAGFPFSSDCLPDLSVWAEMLDKSPIRYIPQVKTPLLLMLGQEDRRVPFKQGMEYYRALKTRNVPVRLLLYPKSTHALSEVEVESDSFMNAVLWLRTHLGS [APEH]	-0.0981	-2.58	-2.38	58.5	59.4	0.11
MERSGPSEVTGSDASGPDPQLAVTMGFTGFGKKARTFDLEAMFEQTRRTAVERSRKTLEAREKEEEMNREKELRRQNEDIEPTSSRSNVVRDCSKSSSRDTSSSESEQSSDSSDDELIGPPLPPKMVGKPVNFMEEDILGPLPPPLNEEEEEAEEEEEEEEEEENPVHKIPDSHEITLKHGTKTVSALGLDPSGARLVTGGYDYDVKFWDFAGMDASFKAFRSLQPCECHQIKSLQYSNTGDMILVVSGSSQAKVIDRDGFEVMECIKGDQYIVDMANTKGHTAMLHTGSWHPKIKGEFMTCSNDATVRTWEVENPKKQKSVFKPRTMQGKKVIPTTCTYSRDGNLIAAACQNGSIQIWDRNLTVHPKFHYKQAHDSGTDTSCVTFSYDGNVLASRGGDDSLKLWDIRQFNKPLFSASGLPTMFPMTDCCFSPDDKLIVTGTSIQRGCGSGKLVFFERRTFQRVYEIDITDASVVRCLWHPKLNQIMVGTGNGLAKVYYDPNKSQRGAKLCVVKTQRKAKQAETLTQDYIITPHALPMFREPRQRSTRKQLEKDRLDPLKSHKPEPPVAGPGRGGRVGTHGGTLSSYIVKNIALDKTDDSNPREAILRHAKAAEDSPYWVSPAYSKTQPKTMFAQVESDDEEAKNEPEWKKRKI [WDR70]	-0.0897	-0.26	-0.746	53.3	53.2	-0.0649
MESALPAAGFLYWVGAGTVAYLALRISYSLFTALRVWGVGNEAGVGPGLGEWAVVTGSTDGIGKSYAEELAKHGMKVVLISRSKDKLDQVSSEIKEKFKVETRTIAVDFASEDIYDKIKTGLAGLEIGILVNNVGMSYEYPEYFLDVPDLDNVIKKMININILSVCKMTQLVLPGMVERSKGAILNISSGSGMLPVPLLTIYSATKTFVDFFSQCLHEEYRSKGVFVQSVLPYFVATKLAKIRKPTLDKPSPETFVKSAIKTVGLQSRTNGYLIHALMGSIISNLPSWIYLKIVMNMNKSTRAHYLKKTKKN [HSD17B12]	-0.194	-1.05	-1.18	53.9	53.7	0.079
